Data on one molecule can be found in publication PMC3646893, “Solution Structure and Rpn1 Interaction of the UBL Domain of Human RNA Polymerase II C-Terminal Domain Phosphatase” (PLoS ONE, 2013).

This test addresses T1, Rpn1 regulatory subunit 1 (Rpn1 394-568), as used for NMR titration and ITC (human, UniProt Q13200 394-568).
T1 construct: source: E. coli BL21 (DE3), purified (size exclusion chromatography)
The test can be described thus: ITC; VP-ITC, 25°C, NMR buffer; 20 µM Rpn1 regulatory subunit 1 in the cell, 25 injections of 6 µL of 400 µM UBL domain; one-site fit. Particulars: both partners purified. Background: Isothermal titration calorimetry measures the heat released or taken up as one component is titrated into another.

T1 sequence (Q13200 394-568): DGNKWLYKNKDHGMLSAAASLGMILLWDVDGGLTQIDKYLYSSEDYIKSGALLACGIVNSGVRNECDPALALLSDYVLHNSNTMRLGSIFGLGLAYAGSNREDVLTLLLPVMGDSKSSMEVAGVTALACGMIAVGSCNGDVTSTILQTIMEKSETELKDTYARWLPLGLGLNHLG

B1: UBL domain of hUBLCP1 (UBLCP1 1-81), as used for NMR and ITC (domain or fragment, human, UniProt Q8WVY7 1-81, looked up)
chain: MALPIIVKWGGQEYSVTTLSEDDTVLDLKQFLKTLTGVLPERQKLLGLKVKGKPAENDVKLGALKLKPNTKIMMMGTREES
notes: UBL domain of human UBLCP1, residues 1-81; 15N-labelled (M9 medium) for the NMR titration; also called 15N-labeled UBL domain; source: E. coli BL21 (DE3), purified (size exclusion chromatography)
For the molecule B1, binding was put at a Kd of 10.3 µM and the dH was -53.8 kcal/mol.
